Tests used:
[1] = substrate: O=C(Cc1cccs1)N[C@@H]1C(=O)N2C(C(=O)[O-])=C(C[n+]3ccccc3)CS[C@H]12; experiment: The compound was tested against Bacteroides fragilis FP784 and its stability towards beta-lactamase was evaluated; type: functional
[2] = substrate: O=C(Cc1cccs1)N[C@@H]1C(=O)N2C(C(=O)[O-])=C(C[n+]3ccccc3)CS[C@H]12; experiment: The compound was tested against Bacteroides fragilis FP784 and its stability towards beta-lactamase relative to cephaloridine was evaluated; type: functional

B1: Beta-lactamase (Enterobacter cloacae), P05364 (protein)
chain: MMRKSLCCALLLGISCSALATPVSEKQLAEVVANTITPLMKAQSVPGMAVAVIYQGKPHYYTFGKADIAANKPVTPQTLFELGSISKTFTGVLGGDAIARGEISLDDAVTRYWPQLTGKQWQGIRMLDLATYTAGGLPLQVPDEVTDNASLLRFYQNWQPQWKPGTTRLYANASIGLFGALAVKPSGMPYEQAMTTRVLKPLKLDHTWINVPKAEEAHYAWGYRDGKAVRVSPGMLDAQAYGVKTNVQDMANWVMANMAPENVADASLKQGIALAQSRYWRIGSMYQGLGWEMLNWPVEANTVVEGSDSKVALAPLPVAEVNPPAPPVKASWVHKTGSTGGFGSYVAFIPEKQIGIVMLANTSYPNPARVEAAYHILEALQ
[1]
  Km: 31.7 µg/mL
[2]
  Vmax: 1

Reference: ChEMBL document CHEMBL1132501, “Synthesis and anti-Helicobacter pylori activity of FR182024, a new cephem derivative” (1999)
